Reference: patent publication US20240060059A1
“And” between values parts separate entries of the source, which are not always exact repeats. Equal values may be shown once. Values belong to the substance of their own block, whether it stands above or below them.

Assays:
Experiment in all cases: cell-based or functional assay
[1] = target: [196-297]-FRB (UniProt P42345)
[2] = target: spHT 80 C-terminal fragment fused to FRB or FKBP
[3] = target: spHT 133 C-terminal fragment fused to FRB or FKBP
[4] = target: spHT 145 C-terminal fragment fused to FRB or FKBP
[5] = target: spHT 157 C-terminal fragment fused to FRB or FKBP
[6] = target: spHT 180 C-terminal fragment fused to FRB or FKBP

Sequence of UniProt P42345 (P42345 other isoform, or with tags, fused parts or gaps limits assumed): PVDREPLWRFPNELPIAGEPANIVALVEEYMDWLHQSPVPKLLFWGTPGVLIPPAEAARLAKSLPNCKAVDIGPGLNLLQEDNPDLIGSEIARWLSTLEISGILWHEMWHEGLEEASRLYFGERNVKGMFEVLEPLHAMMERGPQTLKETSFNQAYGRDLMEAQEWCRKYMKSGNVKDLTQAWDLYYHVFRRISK

fold fluorescence signal increase (JF646 ligand) in the presence of 50 nM rapamycin, E. coli lysates [1]: 4.7 fold and > 2 fold
Substance: [1-195]-FKBP (from UniProt P62942 2-108)

fold fluorescence signal increase (JF646 ligand) in the presence of 50 nM rapamycin, E. coli lysates [2]: > 2 fold
Substance: spHT 80 N-terminal fragment fused to FRB or FKBP

fold fluorescence signal increase (JF646 ligand) in the presence of 50 nM rapamycin, E. coli lysates [3]: > 2 fold
Substance: spHT 133 N-terminal fragment fused to FRB or FKBP

fold fluorescence signal increase (JF646 ligand) in the presence of 50 nM rapamycin, E. coli lysates [4]: > 2 fold
Substance: spHT 145 N-terminal fragment fused to FRB or FKBP

fold fluorescence signal increase (JF646 ligand) in the presence of 50 nM rapamycin, E. coli lysates [5]: > 2 fold
Substance: spHT 157 N-terminal fragment fused to FRB or FKBP

fold fluorescence signal increase (JF646 ligand) in the presence of 50 nM rapamycin, E. coli lysates [6]: > 2 fold
Substance: spHT 180 N-terminal fragment fused to FRB or FKBP
